This passage reports binding result and Kd results from patent US20110212843, “STRUCTURE BASED AND COMBINATORIALLY SELECTED OLIGONUCLEOSIDE PHOSPHOROTHIOATE AND PHOSPHORODITHIOATE APTAMER TARGETING AP-1 TRANSCRIPTION FACTORS” (BOARD OF REGENTS, THE UNIVERSITY OF TEXAS SYSTEM, published 2011).

The target in series [1] is T1, NF-kB p50 homodimer (UniProt P19838 P19838:1-433). Description: resynthesised on bead; text labels it SEQ ID NO 7 but printed sequence differs. The following applies: chain copies: 2 stated. From the text:
(§1) Sequencing may also be obtained directly from the bead. Each individually selected bead was washed thoroughly with 8 M urea (pH 7.2) to remove the protein and was directly used for the “one-bead one-PCR” amplification using the 5′ and 3′ end primers. The PCR product was cloned using the TA Cloning procedure (Invitrogen) and sequenced on an ABI Prism 310 Genetic Analyzer (Applied Biosystems). The four thioaptamers listed in Table 3 were obtained from the library. […] The fluorescence intensity of all of the beads viewed under the fluorescence microscope was qualitatively similar to the intensity of the selected bead containing this sequence within the combinatorial library. […] Thus, the split synthesis has been used to create a “one-bead-one sequence” ODN and that PCR can be used to identify an S-ODN bound to a bead (Yang et al., 2002; Gorenstein et al, US & Foreign Patents pending, 1999 a, b, 2001, 2002).

Series [2] has as its target NF-kB p65 (Rel A) homodimer (UniProt Q04206 Q04206:1-551).
Series [3] has as its target T1, NF-kB p50 homodimer. Description: sub-nM binding affinity. The following applies: chain copies: 2 stated.
The target in series [4] is T1, NF-kB p50 homodimer. Description: bead fluorescence, Alexa Fluor 488-p50. The following applies: chain copies: 2 stated.
Excerpt: (§2) The dsDNA thioaptamer library beads were screened for the ability to bind the NF-κB p50/p50 dimer labeled with the Alexa Fluor 488 dye (Molecular Probes). After initial binding of protein, the beads were thoroughly washed with PBS with 0.1% Tween 20 to minimize nonspecific binding. Typically, a few positive beads were intensely stained when viewed by fluorescence, while the majority of the beads remained unstained as (data not shown). With the aid of a micropipette coupled to a micromanipulator, the intensely stained beads were retrieved. Only highly positive beads from several thousand were found using this method. As described below, multicolor flow cytometry and cell/bead sorting was used to automate the selection process to select the tightest binding thioaptamer-protein complexes.
as §1

Series [5] addresses T1, NF-kB p50 homodimer. The experiment in a line: bead fluorescence, Alexa Fluor 488-p50; PBS 0.1% Tween 20 wash. The following applies: chain copies: 2 stated.
Excerpt: as §2
Sequencing may also be obtained directly from the bead. Each individually selected bead was washed thoroughly with 8 M urea (pH 7.2) to remove the protein and was directly used for the “one-bead one-PCR” amplification using the 5′ and 3′ end primers. The PCR product was cloned using the TA Cloning procedure (Invitrogen) and sequenced on an ABI Prism 310 Genetic Analyzer (Applied Biosystems). […] The fluorescence intensity of all of the beads viewed under the fluorescence microscope was qualitatively similar to the intensity of the selected bead containing this sequence within the combinatorial library. […]

A further series deals with AP-1 c-Jun (Homo sapiens, UniProt P05412 P05412:1-331). The experiment in a line: EMSA; specific binding to recombinant human c-Jun dimers. The following applies: chain copies: 2 stated. On the technique in general: Mobility shift assays separate free from complexed probe on a gel.
Sequence of AP-1 c-Jun (P05412 whole entry, one chain of several): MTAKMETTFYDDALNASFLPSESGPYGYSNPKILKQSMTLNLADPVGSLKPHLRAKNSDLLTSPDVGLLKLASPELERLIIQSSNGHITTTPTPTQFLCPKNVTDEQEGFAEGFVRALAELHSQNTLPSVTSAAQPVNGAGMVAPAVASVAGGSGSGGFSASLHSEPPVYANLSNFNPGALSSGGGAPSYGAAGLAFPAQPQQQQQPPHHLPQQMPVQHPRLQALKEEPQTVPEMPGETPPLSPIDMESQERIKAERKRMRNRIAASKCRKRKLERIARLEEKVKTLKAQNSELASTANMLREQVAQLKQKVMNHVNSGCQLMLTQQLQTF

T1 sequence (P19838 1-433, one chain of several): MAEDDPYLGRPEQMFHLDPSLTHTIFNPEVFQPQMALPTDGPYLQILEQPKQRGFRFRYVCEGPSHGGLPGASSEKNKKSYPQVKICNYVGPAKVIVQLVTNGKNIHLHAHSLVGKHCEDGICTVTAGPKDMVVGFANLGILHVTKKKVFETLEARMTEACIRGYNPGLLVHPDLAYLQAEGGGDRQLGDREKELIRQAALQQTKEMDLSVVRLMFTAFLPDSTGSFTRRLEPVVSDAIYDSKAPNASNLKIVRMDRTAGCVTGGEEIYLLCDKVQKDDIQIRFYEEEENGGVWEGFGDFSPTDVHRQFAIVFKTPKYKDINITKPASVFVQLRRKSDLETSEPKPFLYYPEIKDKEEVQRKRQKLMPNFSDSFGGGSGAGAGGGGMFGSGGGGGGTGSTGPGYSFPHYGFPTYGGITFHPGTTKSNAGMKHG
Sequence of NF-kB p65 (Rel A) homodimer (Q04206 whole entry, one chain of several): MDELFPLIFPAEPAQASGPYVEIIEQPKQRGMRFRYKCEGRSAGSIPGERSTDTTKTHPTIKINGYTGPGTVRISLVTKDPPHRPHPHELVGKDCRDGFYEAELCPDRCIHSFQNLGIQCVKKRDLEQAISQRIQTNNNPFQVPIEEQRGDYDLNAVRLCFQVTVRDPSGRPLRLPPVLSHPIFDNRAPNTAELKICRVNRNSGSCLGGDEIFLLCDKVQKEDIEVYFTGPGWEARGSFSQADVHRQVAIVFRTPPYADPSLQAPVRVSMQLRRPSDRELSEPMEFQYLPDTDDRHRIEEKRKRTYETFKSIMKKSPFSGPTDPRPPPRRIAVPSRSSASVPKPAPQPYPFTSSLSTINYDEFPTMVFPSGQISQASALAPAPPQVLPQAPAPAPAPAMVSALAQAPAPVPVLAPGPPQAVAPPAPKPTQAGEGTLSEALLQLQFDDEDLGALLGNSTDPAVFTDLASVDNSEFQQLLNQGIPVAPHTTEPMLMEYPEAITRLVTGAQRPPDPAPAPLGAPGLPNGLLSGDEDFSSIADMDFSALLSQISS

B1: Resynthesised bead thioaptamer (dsDNA)
DNA 1: CTGTGAGTCGACTGATGACGGT
DNA 2: ACCGTCATCAGTCGACTCACAG
modifications: PS 3' of lower-case bases, one strand
B1: the binding result in the series with NF-kB p50 homodimer [1] is on record as “binds”.

B2: XBY-6 (dsDNA)
DNA 1: CCAGGAGATTCCAC
DNA 2: GTGGAATCTCCTGG
modifications: phosphorodithioate 3' of T9 and T10 of top strand and 3' of each T printed as S2T in bottom strand (4), 6 in total
Turning to B2, the values for the Kd (in series [2]; with NF-kB p50 homodimer [3]) were 1.4 nM and less than 1 nM, respectively.

B3: Split-synthesis thioaptamer SEQ 7 (dsDNA)
DNA 1: CTGTGCATCGAAGTTTGCATTT
DNA 2: AAATGCAAACTTCGATGCACAG
modifications: PS 3' of lower-case bases in CtGTGCatCGAaGTTtGCAtTt, one strand
With B3, the binding result with NF-kB p50 homodimer [4] is listed as “binds”.

B4: Split-synthesis thioaptamer SEQ 6 (dsDNA)
DNA 1: TGTGCAGGGACTGATGACGGT
DNA 2: ACCGTCATCAGTCCCTGCACA
modifications: PS 3' of lower-case bases in tGTGcAGGGACTgAtGaCGGt, one strand
On to B4, for which, in the series with NF-kB p50 homodimer [5], the binding result is reported as “binds”.

B5: Split-synthesis thioaptamer SEQ 8 (dsDNA)
DNA 1: ATGCACATCTCAGGATGACGGT
DNA 2: ACCGTCATCCTGAGATGTGCAT
modifications: PS 3' of lower-case bases in AtGcAcAtCtCaGgAtGaCGGt, one strand
With B5, the binding result with NF-kB p50 homodimer [4] was “binds”.

B6: XBY-S2 (dsDNA)
DNA 1: CCAGTGACTCAGTG
DNA 2: CACTGAGTCACTGG
modifications: phosphorodithioates, 6 in total, 3' of T at S2 positions as printed (3 per strand)
As to B6, the binding result with AP-1 c-Jun is “binds”.

B7: Split-synthesis thioaptamer SEQ 9 (dsDNA)
DNA 1: AGTTGCAGGTCAGGACCCATTT
DNA 2: AAATGGGTCCTGACCTGCAACT
modifications: PS 3' of lower-case bases in AGTTGcAGGtCaGgACCCAtTt, one strand
Consider B7, for which the binding result with NF-kB p50 homodimer [4] was “binds”.
